Data on 4 molecules can be found in US7482016B2, “Immunogenic compositions comprising HIV-1 acetylated Tat polypeptides” (The J. David Gladstone Institutes, priority 2003, dated 2009).

The subject of experiment [1] is p300-dependent transcription of MyoD RNA. The following applies: microinjected into nuclei of oocytes; cited from earlier work.
Experiment [2] relates to Tat transactivation of the HIV LTR in HeLa-Tat cells. The experiment is described as follows: Nuclear microinjection of HIV LTR-luciferase reporter, Tat transactivation. Type of experiment: cell-based. As to conditions: 8 μM solution microinjected into HeLa-Tat cells, three independent experiments. The method, then:
Microinjection experiments were previously described (Dorr et al. (2002), supra). Microinjection was performed at room temperature with a Zeiss automated injection system (Carl Zeiss, Oberkochen, Germany). Samples were prepared as a […] injection mix containing the luciferase reporter constructs (100 ng/ml) and CMV-GFP (50 ng/ml) constructs in sterile water or phosphate buffer. In individual experiments α-AcARM or preimmune immunoglobulins (5 mg/ml), Lys-CoA (8 μM) or synthetic Tat (30 μg/ml) were included in the mix. Four hours after injection, cells were examined on a Zeiss Axiovert microscope to determine the number of GFP-positive cells, washed in cold phosphate buffer and stored at −70° C. for luciferase assays (Promega). The α-p24 monoclonal antibody (183-H12-5C) was used in control microinjections with α-AcARM mAbs and was obtained through the AIDS Research and Reference Reagent Program, NIH (Chesebro et al. (1992) J Virol 66, 6547-6554). […]
FIGS. 3A-D. (FIG. 3A) Microinjection of the p300-HAT inhibitor Lys-CoA (8 μM), HIV LTR-luciferase and CMV-GFP into HeLa or HeLa-Tat cells. Each value is expressed as a percentage of the value obtained in control cells, injected with LTR-luciferase and CMV-GFP alone. […]
(In general: A reporter such as luciferase makes a cellular process visible.)

The subject of experiment [3] is TAR-mutant LTR-luciferase, RSV LTR-luciferase, 5×UAS/Gal4-VP16, CMV-GFP, LTR alone in HeLa cells. The experiment is described as follows: Microinjection control experiments with Tat-independent reporters. Type of experiment: cell-based.
Description: Microinjection was performed at room temperature with a Zeiss automated injection system (Carl Zeiss, Oberkochen, Germany). Samples were prepared as a 20111 injection mix containing the luciferase reporter constructs (100 ng/ml) and CMV-GFP (50 ng/ml) constructs in sterile water or phosphate buffer. In individual experiments α-AcARM or preimmune immunoglobulins (5 mg/ml), Lys-CoA (8 μM) or synthetic Tat (30 μg/ml) were included in the mix. Four hours after injection, cells were examined on a Zeiss Axiovert microscope to determine the number of GFP-positive cells, washed in cold phosphate buffer and stored at −70° C. for luciferase assays (Promega).
A GFP-expressing construct (CMV-GFP) was coinjected to count the number of injected cells before analysis of luciferase activity.
Experiment [4] concerns Jurkat T cells expressing FLAG-tagged Tat from the HIV LTR. Briefly: Western blot of lysates of Jurkat T cells expressing FLAG-tagged Tat after TSA. Type of experiment: cell-based. The following applies: 400 nM TSA, 16 hours. How it is done:
Immunoglobulin G were purified on Gammabind Plus Sepharose (Amersham).
Next, cellular extracts were analyzed with anti-AcARM antibodies. A cell line was generated that constitutively expressed a FLAG-tagged Tat protein from the HIV LTR by transducing Jurkat T cells with a Tat-encoding lentiviral vector (Jordan et al., 2001, supra). Following treatment with trichostatin A (TSA), a specific inhibitor of cellular HDACs, AcTat was detected by western blot analysis with anti-AcARM mAbs in cells expressing Tat, but not in control cells expressing GFP (FIG. 1D). To enhance the signal, immunoprecipitation was performed with anti-FLAG monoclonal antibodies before western blot analysis. Again, AcTat was detected in Tat-expressing, but not in GFP control cells (FIG. 1E). Expression of AcTat was enhanced when cells were treated with TSA.
(In western blotting, separated proteins are transferred to a membrane and probed.)

Experiment [5] addresses T1, Tat/TAR/CyclinT1 complex (Homo sapiens, UniProt O60563).
T1 construct: 160 ng of GST-cleaved CyclinT1 (amino acids 1-303); GST (N, cleaved yes); made in house
Briefly: RNA gel shift with recombinant CyclinT1, ternary complex formation. It is filed as binding. As to conditions: presence of CyclinT1. How it is done:
TAR RNAs were synthesized from HindIII-linearized pGEM3Zf-TAR constructs, which contained an oligonucleotide corresponding to the HIVLAI TAR sequence (nucleotides +17 to +44) ligated into the EcoR1-HindIII cloning sites, downstream of the T7 RNA polymerase start site. In the TARΔbulge construct, thymidine 23 was replaced with an adenosine, and the TARΔloop construct contained C30→A, T31→G, and G33→T mutation. In vitro transcription reactions were performed with the Riboprobe system (Promega, Madison, Wis.) with 1 μg of linearized plasmids and 50 μCi of ^32P-CTP (20 μCi/μl; Amersham Pharmacia Biotech). Transcripts were treated with 2 U DNAse I (Promega), extracted with a phenol:chloroform mixture, and purified over a Nick column (Amersham Pharmacia Biotech). […]
FIGS. 4A-D. (FIG. 4A) Bulge-dependent binding of Tat to TAR. Radiolabeled riboprobes corresponding to the HIV TAR element or a mutated form (TARΔBulge) were incubated with 0, 40, 80 and 160 ng of Tat and analyzed on a 4% Tris-glycine gel. […] Bound proteins were analyzed with monoclonal anti-Tat antibodies, directed against the N-terminus of Tat. […] Biotinylated Tat or AcTat proteins (0, 1, 2, 4, 8 μg) were incubated with nuclear extracts, precipitated with streptavidin-sepharose and analyzed with modification-specific antibodies directed against the CTD of RNAPII. AcTat was detected with monoclonal anti-AcARM antibodies. […]
On the technique in general: In EMSA bound probe runs differently from free probe, usually more slowly.

The target in experiment [6] is T2, RNAPII (Homo sapiens, UniProt P24928).
T2 construct: analyzed with modification-specific antibodies directed against the CTD of RNAPII; endogenous in cells; host or cells: 293 nuclear extract
Briefly: RNA polymerase II binding in 293 nuclear extracts. As to conditions: biotinylated proteins. How it is done: Synthetic biotinylated nonacetylated and acetylated Tat proteins were incubated for 2 hours with 50 μl 293 nuclear extracts prepared according to (Dignam et al. (1983) Methods Enzymol. 101, 582-598) in buffer conditions described in (Mavankal et al., (1996) Proc. Natl. Acad. Sci. USA 93, 2089-2094). Complexes were collected with streptavidin-sepharose beads, separated by SDS-PAGE electrophoresis and analyzed with α-RNAPII antibodies (clones H14 and 8WG16; CPR Inc) or with α-AcARM mAbs and HRP-conjugated Streptavidin (Jackson Immunoresearch Laboratories).
(§1) FIGS. 4A-D. (FIG. 4A) Bulge-dependent binding of Tat to TAR. Radiolabeled riboprobes corresponding to the HIV TAR element or a mutated form (TARΔBulge) were incubated with 0, 40, 80 and 160 ng of Tat and analyzed on a 4% Tris-glycine gel. (FIG. 4B) High-affinity binding of AcTat to TAR RNA, but […]. The wild-type TAR probe was incubated with increasing amounts of synthetic Tat or AcTat (0, 1.6 ng, 8 ng, 40 ng, and 200 ng) in the absence or presence of recombinant CyclinT1. The same experiment with a mutated TAR RNA probe containing mutations in the apical loop is shown below (TARΔLoop). (FIG. 4C) Binding of AcTat to CyclinT1 in the absence of TAR. Increasing amounts (0, 0.5 μg, 1 μg, and 2 μg) of Tat or AcTat were incubated with GST-CyclinT1, Tat-binding-deficient GST-CyclinT1 (C261A) or GST alone. Bound proteins were analyzed with monoclonal anti-Tat antibodies, directed against the N-terminus of Tat. 50% of input Tat proteins are shown. (FIG. 4D) Binding of Tat and AcTat to RNAPII. Biotinylated Tat or AcTat proteins (0, 1, 2, 4, 8 μg) were incubated with nuclear extracts, precipitated with streptavidin-sepharose and analyzed with modification-specific antibodies directed against the CTD of RNAPII. AcTat was detected with monoclonal anti-AcARM antibodies. Both Tat proteins reacted with horseradish peroxidase-conjugated streptavidin (SA-HRP).

Experiment [7] concerns the target T3, GST-CyclinT1 (Homo sapiens, UniProt O60563).
T3 construct: Full-length GST-CyclinT1, GST-CyclinT1C261A or GST alone were expressed in the BL21 strain of Escherichia coli; made in house; host or cells: Escherichia coli BL21
Briefly: GST binding (pulldown) assay. The following applies: absence of TAR. How it is done:
(§2) Full-length GST-CyclinT1, GST-CyclinT1C261A or GST alone were expressed in the BL21 strain of Escherichia coli and purified on glutathione-Sepharose beads (Amersham Pharmacia Biotech) as described (Herrmann and Rice (1993) Virology 197, 601-608). For binding assays ˜1 μg of bead-coupled GST-CyclinT1, GST-CyclinT1C261A or GST alone was incubated with Tat and AcTat in 100 μl modified Buffer C for 3.5 hr at 4°. Buffer C is described in (Fujinaga et al. (1999) Proc. Natl. Acad. Sci. USA 96, 1285-1290) and was used without ZnCl2 and SDS. Beads were washed three times with modified Buffer C containing 1M KCl, boiled in Laemmli buffer and supernatant was analyzed by immunoblotting using monoclonal anti-Tat antibodies (clone AC11.AE12; CPR Inc.).
as §1

The target of experiment [8] is T4, GST-CyclinT1 (Homo sapiens, UniProt O60563, C261A).
T4 construct: Full-length GST-CyclinT1, GST-CyclinT1C261A or GST alone were expressed in the BL21 strain of Escherichia coli; made in house; host or cells: Escherichia coli BL21
Briefly: GST binding (pulldown) assay. How it is done:
as §2, §1

For experiment [9], the system named is HIV TAR RNA. The experiment is described as follows: RNA gel mobility shift assay. It is filed as binding. The following applies: for effect of mutations in the loop of TAR on binding: TARΔLoop probe; for binding to wild-type TAR RNA: absence of CyclinT1; for effect of addition of CyclinT1 on affinity for wild-type TAR RNA: recombinant CyclinT1 present. How it is done:
TAR RNAs were synthesized from HindIII-linearized pGEM3Zf-TAR constructs, which contained an oligonucleotide corresponding to the HIVLAI TAR sequence (nucleotides +17 to +44) ligated into the EcoR1-HindIII cloning sites, downstream of the T7 RNA polymerase start site. In the TARΔbulge construct, thymidine 23 was replaced with an adenosine, and the TARΔloop construct contained C30→A, T31→G, and G33→T mutation. In vitro transcription reactions were performed with the Riboprobe system (Promega, Madison, Wis.) with 1 μg of linearized plasmids and 50 μCi of ^32P-CTP (20 μCi/μl; Amersham Pharmacia Biotech). Transcripts were treated with 2 U DNAse I (Promega), extracted with a phenol:chloroform mixture, and purified over a Nick column (Amersham Pharmacia Biotech). Gel mobility reactions (final volume, 16 μl) were carried out at 30° C. as described (Wei et al. (1998) Cell 92, 451-462) with 2×10^4 cpm TAR probes/reaction with indicated concentrations of Tat proteins and 160 ng of GST-cleaved CyclinT1 (amino acids 1-303) (Garber et al. (1998) Curr Opin Immunol 11, 460-465). RNA-binding complexes were separated on a pre-run 4% Tris-glycine gel.
as §1

T4 sequence (O60563 whole entry C261A): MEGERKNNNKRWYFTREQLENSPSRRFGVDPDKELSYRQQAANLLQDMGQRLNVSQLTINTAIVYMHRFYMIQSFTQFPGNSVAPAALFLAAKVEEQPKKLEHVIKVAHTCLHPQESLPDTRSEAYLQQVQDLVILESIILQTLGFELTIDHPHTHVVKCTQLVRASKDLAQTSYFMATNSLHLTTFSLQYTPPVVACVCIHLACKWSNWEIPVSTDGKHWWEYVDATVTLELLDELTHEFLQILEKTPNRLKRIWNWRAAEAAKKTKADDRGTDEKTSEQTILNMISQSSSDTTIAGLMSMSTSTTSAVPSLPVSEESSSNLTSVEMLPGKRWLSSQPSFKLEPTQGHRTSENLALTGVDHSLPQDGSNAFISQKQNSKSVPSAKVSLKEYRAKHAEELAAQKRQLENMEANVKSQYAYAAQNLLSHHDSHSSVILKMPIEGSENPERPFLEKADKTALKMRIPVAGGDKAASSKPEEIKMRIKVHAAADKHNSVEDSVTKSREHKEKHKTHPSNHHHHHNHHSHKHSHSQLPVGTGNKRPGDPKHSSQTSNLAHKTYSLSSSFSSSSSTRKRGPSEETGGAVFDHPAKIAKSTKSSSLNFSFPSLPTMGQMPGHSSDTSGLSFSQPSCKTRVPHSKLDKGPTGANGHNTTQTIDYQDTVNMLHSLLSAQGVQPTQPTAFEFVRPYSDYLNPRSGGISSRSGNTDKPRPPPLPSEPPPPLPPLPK
T3 sequence (O60563 whole entry): as the sequence (O60563 whole entry C261A) above, with A261C counted along it
T1 sequence (O60563 1-303, one chain of several): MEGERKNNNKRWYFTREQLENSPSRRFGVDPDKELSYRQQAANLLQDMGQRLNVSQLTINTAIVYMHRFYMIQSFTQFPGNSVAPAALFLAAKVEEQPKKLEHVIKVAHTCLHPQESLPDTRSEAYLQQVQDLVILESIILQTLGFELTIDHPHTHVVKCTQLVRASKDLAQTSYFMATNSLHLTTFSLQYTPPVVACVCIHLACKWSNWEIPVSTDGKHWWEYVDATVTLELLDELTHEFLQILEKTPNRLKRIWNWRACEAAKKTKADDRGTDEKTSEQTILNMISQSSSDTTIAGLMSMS

In the case of `CC(=O)N[C@@H](CCCCNC(=O)CSCCNC(=O)CCNC(=O)[C@H](O)C(C)(C)COP(=O)(O)OP(=O)(O)OC[C@H]1O[C@@H](n2cnc3c(N)ncnc32)[C@H](O)[C@@H]1OP(=O)(O)O)C(N)=O` [Lys-CoA], the “p300-dependent transcription of MyoD RNA” value in experiment [1] is recorded as “efficiently blocked”. Besides, in experiment [2], the “inhibition of Tat activity on the HIV LTR” value is listed as 60-70%. In addition, the “effect on the LTR alone” value in experiment [3] (coinjected into HeLa cells (no Tat)) was “no effect”. For the same molecule, the “effect on coinjected CMV-GFP reporter” value in [3] (same concentration (8 μM)) is given as “no effect”.

Turning to `CC(/C=C/C(=O)NO)=C\[C@@H](C)C(=O)c1ccc(N(C)C)cc1` [TSA, trichostatin A], the “Tat expression (anti-FLAG immunodetection)” value in experiment [4] is on record as “overall upregulation”. Further, in experiment [4] (anti-FLAG immunoprecipitation, anti-AcARM blot), the “expression of AcTat” value is recorded as “enhanced”.

B1: Tat: synthetic unacetylated 72-amino acid Tat, sequence derived from isolate HIV-1BRU (peptide)
chain: MEPVDPRLEPWKHPGSQPKTACTTCYCKKCCFHCQVCFTTKALGISYGRKKRRQRRRPPQGSQTHQVSLSKQ
Take B1: the “formation of the Tat/TAR/CyclinT1 ternary complex” value in experiment [5] is “formed the expected Tat/TAR/CyclinT1 complex”. In addition, the “binding to nonphosphorylated RNAPII” value in experiment [6] is reported as “no binding”. Further, the “binding to wild-type GST-CyclinT1” value in [7] is reported as “equal affinities”. For the same molecule, the “binding to mutant CyclinT1 (C261A) or GST alone” value in experiment [8] is “Neither Tat nor AcTat bound”. The “binding to bulge-mutant TAR RNA” value in experiment [9] (TARΔBulge probe) is on record as “blocked”. Also, in [9], the “effect of mutations in the loop of TAR on binding” value is on record as “little effect”, the “binding to wild-type TAR RNA” value was “high affinity” and the “effect of addition of CyclinT1 on affinity for wild-type TAR RNA” value is on record as “did not alter”.

B2: AcTat: synthetic Tat protein (HIV-1BRU sequence, 72 amino acids) containing a single acetylated lysine at position 50 (peptide)
chain: B1 chain
Turning to B2, the “formation of the Tat/TAR/CyclinT1 ternary complex” value in experiment [5] is reported as “could not”. Further, in experiment [6], the “binding to nonphosphorylated RNAPII” value is “no binding” and the “interaction with hyperphosphorylated RNAPII complex” value was “higher affinity than Tat”. Besides, the “binding to wild-type GST-CyclinT1” value in experiment [7] is on record as “equal affinities”. For the same molecule, the “binding to mutant CyclinT1 (C261A) or GST alone” value in experiment [8] was “Neither Tat nor AcTat bound”. Besides, in experiment [9], the “effect of mutations in the loop of TAR on binding” value is “little effect”, the “binding to wild-type TAR RNA” value is on record as “affinities equal to that of unacetylated Tat” and the “effect of addition of CyclinT1 on affinity for wild-type TAR RNA” value is reported as “did not alter”. The “concentration at which retarded bands form, relative to unacetylated Tat” value in experiment [9] (wild-type TAR probe) is “one-third”.
